According to publication doi:10.1101/805184 (bioRxiv, 2019):

B1: Snf6 (natural protein)
chain: MGVIKKKRSHHGKASRQQYYSGVQVGGVGSMGAINNNIPSLTSFAEENNYQYGYSGSSAGMNGRSLTYAQQQLNKQRQDFERVRLRPEQLSNIIHDESDTISFRSNLLKNFISSNDAFNMLSLTTVPCDRIEKSRLFSEKTIRYLMQKQHEMKTQAAELQEKPLTPLKYTKLIAAAEDGSRSTKDMIDAVFEQDSHLRYQPDGVVVHRDDPALVGKLRGDLREAPADYWTHAYRDVLAQYHEAKERIRQKEVTAGEAQDEASLQQQQQQDLQQQQQVVTTVASQSPHATATEKEPVPAVVDDPLENMFGDYSNEPFNTNFDDEFGDLDAVFF
B2: Swi3 (natural protein)
chain: MENTLGEGSTVNASVDVDQHGNDNNSDSNANAAVAGVANTDTAGEESQQQDESLKDEATVPNTRDAESEAITVTAKQQPTMQANKLDSQETPSTEESRAQNVFGQDNEDSDNLFGETESSVSNNEANTPSIPTNPVDNENNKPAIKEDSTIQDSNGDVKNMEDVKIQKEEEPENNTVIEGVKEESQPDENTKEMDEVEEDDEDDDQPMISPDNSIFGDTKSESKQLGNTSSVANTPSEIPDAHKAEQEDIIEKTESVDKKVDSGEERNEQEREIMNDHSKSANPKKTTITRVEPETFEIPQAHEIVIPSYSKWFNLEKIHSIEVQSLPEFFTNRIPSKTPEVYMRYRNFMVNSYRLNPNEYFSVTTARRNVSGDAAALFRLHKFLTKWGLINYQVDSKLLPKNIEPPLTSQYSTRHDAPRGLFPFESYKPSVQLPDMAKLKKMMNTSDSESTLYKYLKESKRKYDEITHPPSTTDDENGDKNDNGGKMNNEVSTSTSMTGDANLLEEGETSRPLKKVKILEQIDENWSKEDLQKLLKGIQEFGADWYKVAKNVGNKSPEQCILRFLQLPIEDKFLYGDGNGKGDNDNGLGPLKYAPHLPFSKSENPVLSTIAFLVGLVNPKTVQSMTQRAIQSAESIKSQKEEISDQKPIEHIKEGSEIAISSLGYRSHIFATNEERQMNFLTNELIRLQMEKLDAKLNHLKKLEKFMELERKTLERQQENLLIQRLNFNQNSSKIVNVLSKCLNLISDSNINNSSVAEKEEIRSQIDHFKSMLSKPETLSIGKNPFNKPNIETGENHNGQSISNENDVKPISIEAPQFYRYWSA
B3: Swp82 (natural protein)
chain: MLGEDEGNTVLEKGNNPSVKQGEVGAVFIVPKILIREHERVILKQILQILDQDELVQPPLDKFPYKKLELPKYIDELKTRDATNTSYKMIQLDAYGEKKVGSNGELFGGRHYLFNTFTFTAHMGVLLVLLQDVIKVLYQSNATHDEDEFIVQHDQILVMETSEEQTKFLAKNGVIPEESKGSFKYITARSAFVEFGASVIAGGQRIVDDYWESLAKKQNLSSHQRVFKLSTNLISKISLLRPSFQNNRISNANEISANTNNTCTISTSKFESQYPIVTEQPSAEIREAYIENFAKGEHISAIVPGQSISGTLELSAQFRVPRYHSKNSFQQALQMKAMDIPIGRHEELLAQYESQAPDGSASISLPNHIPSVNPSNKPIKRMLSSILDINVSSSKNKKSEENEMIKPMNKGQHKNNTSLNINGWKFESLPLKSAENSGKQQYYRGLPLYEKNTLLERLKQLTPNEIKELEHLHDAVFVNTGLQNVRKVRTKKWKKYWQYKAGIPIGLKRSQLDEFKNKYLKDVLAQTSVTTNFNEITNTDETITTKRVPNPNFLGNCNIKDFKPPYIYSHVNKVPQNVAGDKTAVKLDTEVKNTNANPVVATDPVAAKPDNLANFSNEVAMNN

Columns and labels:
Assay in all cases: cryo-EM structure
Swi1 = target: T1, Swi1 (S. cerevisiae, UniProt P09547 1-1314)
T1 sequence: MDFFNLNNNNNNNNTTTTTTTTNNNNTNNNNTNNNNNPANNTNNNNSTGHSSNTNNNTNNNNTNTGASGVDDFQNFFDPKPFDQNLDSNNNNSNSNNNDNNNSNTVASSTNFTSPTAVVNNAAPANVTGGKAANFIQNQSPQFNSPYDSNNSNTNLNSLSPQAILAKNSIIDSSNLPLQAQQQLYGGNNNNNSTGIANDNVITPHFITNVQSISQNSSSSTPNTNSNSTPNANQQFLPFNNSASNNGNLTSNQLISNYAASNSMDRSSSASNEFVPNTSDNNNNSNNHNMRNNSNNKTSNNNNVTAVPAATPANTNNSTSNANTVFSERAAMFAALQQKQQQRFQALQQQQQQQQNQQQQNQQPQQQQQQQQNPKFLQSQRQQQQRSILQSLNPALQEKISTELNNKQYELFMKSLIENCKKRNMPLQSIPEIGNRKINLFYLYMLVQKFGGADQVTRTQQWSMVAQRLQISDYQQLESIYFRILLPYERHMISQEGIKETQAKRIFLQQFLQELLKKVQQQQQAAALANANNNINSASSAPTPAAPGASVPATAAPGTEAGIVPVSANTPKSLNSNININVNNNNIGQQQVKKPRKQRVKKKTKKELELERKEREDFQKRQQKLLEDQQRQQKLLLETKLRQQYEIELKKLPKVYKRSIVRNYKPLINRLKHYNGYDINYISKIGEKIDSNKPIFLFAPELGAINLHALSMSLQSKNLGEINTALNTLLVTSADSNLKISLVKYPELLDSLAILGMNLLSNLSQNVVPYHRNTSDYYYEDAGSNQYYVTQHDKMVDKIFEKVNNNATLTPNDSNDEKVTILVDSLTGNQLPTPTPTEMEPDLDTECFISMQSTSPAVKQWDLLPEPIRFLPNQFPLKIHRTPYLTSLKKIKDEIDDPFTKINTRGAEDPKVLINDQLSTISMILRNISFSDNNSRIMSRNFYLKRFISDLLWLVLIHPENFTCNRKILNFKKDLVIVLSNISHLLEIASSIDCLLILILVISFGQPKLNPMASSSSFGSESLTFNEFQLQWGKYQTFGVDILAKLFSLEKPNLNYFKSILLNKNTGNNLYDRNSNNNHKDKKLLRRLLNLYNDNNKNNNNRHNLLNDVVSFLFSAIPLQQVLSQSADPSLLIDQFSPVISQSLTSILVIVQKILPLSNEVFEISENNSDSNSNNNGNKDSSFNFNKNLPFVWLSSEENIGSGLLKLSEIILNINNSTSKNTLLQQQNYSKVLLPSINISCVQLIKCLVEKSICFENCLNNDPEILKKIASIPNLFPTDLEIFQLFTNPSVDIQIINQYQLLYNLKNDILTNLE

Swi3 = target: B2
Snf12 = target: T2, Snf12 (S. cerevisiae, UniProt P53628 1-566)
T2 sequence: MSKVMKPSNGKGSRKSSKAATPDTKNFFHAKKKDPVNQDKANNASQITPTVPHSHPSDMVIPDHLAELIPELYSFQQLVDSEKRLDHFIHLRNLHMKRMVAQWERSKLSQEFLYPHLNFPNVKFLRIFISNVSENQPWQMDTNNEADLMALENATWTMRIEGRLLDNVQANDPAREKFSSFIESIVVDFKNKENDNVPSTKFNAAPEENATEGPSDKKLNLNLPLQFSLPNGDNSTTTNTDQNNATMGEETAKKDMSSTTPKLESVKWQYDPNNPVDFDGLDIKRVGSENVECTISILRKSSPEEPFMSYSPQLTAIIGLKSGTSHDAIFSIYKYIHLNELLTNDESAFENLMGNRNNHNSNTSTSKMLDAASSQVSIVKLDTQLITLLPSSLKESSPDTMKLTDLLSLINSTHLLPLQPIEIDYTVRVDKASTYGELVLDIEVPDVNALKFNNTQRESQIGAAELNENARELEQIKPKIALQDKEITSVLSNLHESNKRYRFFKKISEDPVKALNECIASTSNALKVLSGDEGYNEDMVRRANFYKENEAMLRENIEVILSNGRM

cryo-EM structure = target: the molecule itself
Snf5 = Snf5 (S. cerevisiae, UniProt P18480 1-905)
Snf2 = Snf2 (S. cerevisiae, UniProt P22082 1-1703)
Sequence of Snf2 (P22082 whole entry): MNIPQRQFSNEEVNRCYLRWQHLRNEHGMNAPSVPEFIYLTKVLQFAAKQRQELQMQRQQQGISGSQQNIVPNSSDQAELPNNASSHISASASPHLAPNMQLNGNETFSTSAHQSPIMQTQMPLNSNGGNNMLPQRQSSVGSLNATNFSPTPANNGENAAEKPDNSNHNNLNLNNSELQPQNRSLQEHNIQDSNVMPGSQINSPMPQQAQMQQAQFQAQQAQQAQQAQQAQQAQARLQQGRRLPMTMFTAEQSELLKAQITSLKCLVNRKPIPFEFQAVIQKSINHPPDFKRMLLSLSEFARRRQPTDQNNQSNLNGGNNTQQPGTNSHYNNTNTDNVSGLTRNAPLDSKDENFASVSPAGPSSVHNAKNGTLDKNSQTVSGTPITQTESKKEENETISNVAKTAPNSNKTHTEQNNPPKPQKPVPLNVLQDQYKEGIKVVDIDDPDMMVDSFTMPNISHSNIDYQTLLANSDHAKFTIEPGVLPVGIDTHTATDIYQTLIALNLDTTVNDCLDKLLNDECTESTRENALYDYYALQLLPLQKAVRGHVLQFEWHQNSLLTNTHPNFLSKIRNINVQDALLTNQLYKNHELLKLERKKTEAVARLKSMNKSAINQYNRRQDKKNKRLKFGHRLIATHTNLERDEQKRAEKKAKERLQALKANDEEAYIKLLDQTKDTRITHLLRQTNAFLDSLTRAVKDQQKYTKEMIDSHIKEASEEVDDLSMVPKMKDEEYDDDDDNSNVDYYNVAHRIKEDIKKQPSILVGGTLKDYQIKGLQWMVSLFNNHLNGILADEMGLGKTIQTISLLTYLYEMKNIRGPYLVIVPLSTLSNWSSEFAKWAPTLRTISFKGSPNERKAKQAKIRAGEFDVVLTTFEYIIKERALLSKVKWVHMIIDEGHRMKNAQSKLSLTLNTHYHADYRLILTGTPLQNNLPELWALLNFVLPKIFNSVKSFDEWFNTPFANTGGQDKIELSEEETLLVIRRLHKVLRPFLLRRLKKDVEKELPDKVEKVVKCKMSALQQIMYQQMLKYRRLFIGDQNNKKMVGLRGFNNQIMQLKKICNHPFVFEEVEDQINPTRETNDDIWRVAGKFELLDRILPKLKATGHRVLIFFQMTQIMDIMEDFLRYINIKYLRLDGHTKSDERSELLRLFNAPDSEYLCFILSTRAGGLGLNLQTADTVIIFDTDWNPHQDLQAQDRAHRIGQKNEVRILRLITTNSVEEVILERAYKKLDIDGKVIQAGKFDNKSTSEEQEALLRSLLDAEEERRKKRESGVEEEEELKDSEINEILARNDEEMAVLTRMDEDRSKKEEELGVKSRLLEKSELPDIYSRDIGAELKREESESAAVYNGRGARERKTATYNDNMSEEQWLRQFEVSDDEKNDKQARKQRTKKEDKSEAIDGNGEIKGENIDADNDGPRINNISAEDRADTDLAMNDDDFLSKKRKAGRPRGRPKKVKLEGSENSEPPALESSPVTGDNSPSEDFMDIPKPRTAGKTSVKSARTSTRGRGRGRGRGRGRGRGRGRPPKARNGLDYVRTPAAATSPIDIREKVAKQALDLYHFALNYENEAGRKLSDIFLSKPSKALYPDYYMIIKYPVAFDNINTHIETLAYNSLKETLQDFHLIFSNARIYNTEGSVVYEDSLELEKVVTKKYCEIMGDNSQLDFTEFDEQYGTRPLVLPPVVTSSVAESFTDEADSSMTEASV

Row | Binder | binding result (Swi1) | binding result (Swi3) | binding result (Snf12) | stoichiometry N (cryo-EM structure) | binding result (Snf5) | binding result (Snf2)
1 | B1 | binds | binds | binds | – | – | –
2 | B2 | binds | – | – | 2 | binds | binds
3 | B3 | – | binds | – | – | binds | –
